Measurements published in patent US20160222085A1 (CHILDREN S HOSPITAL OF PHILADELPHIA, published 2016).
Substitutions are numbered along the chain they refer to.

T1: Oregon Green 488 maleimide-modified BR (OG488-BR) (human, Oregon Green 488 maleimide on the added N-terminal Cys)
T1 construct: also called fluorescently labeled FVBR
T1 peptide: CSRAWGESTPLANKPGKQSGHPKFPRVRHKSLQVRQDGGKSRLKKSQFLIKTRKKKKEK

T2: TFPI C-terminal tail peptide
T2 construct: The limits are therefore uncertain; also called TFPI peptide
T2 peptide: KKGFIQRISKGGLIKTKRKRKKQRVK

B1: Bovine BR (Bos taurus Ser938-Lys996) (peptide, UniProt Q28107 966-1024, looked up)
peptide: SRTWGENIPFKNSHGKQSGHPTFLVTRRKPLQDRQDRRNSRLKEGLPLIRTRRKKKEEK
B2: FV-810 (FV-DT), Factor V with amino acids 811-1491 deleted from the B-domain (other, human, UniProt P12259 29-838, looked up)
chain: AQLRQFYVAAQGISWSYRPEPTNSSLNLSVTSFKKIVYREYEPYFKKEKPQSTISGLLGPTLYAEVGDIIKVHFKNKADKPLSIHPQGIRYSKLSEGASYLDHTFPAEKMDDAVAPGREYTYEWSISEDSGPTHDDPPCLTHIYYSHENLIEDFNSGLIGPLLICKKGTLTEGGTQKTFDKQIVLLFAVFDESKSWSQSSSLMYTVNGYVNGTMPDITVCAHDHISWHLLGMSSGPELFSIHFNGQVLEQNHHKVSAITLVSATSTTANMTVGPEGKWIISSLTPKHLQAGMQAYIDIKNCPKKTRNLKKITREQRRHMKRWEYFIAAEEVIWDYAPVIPANMDKKYRSQHLDNFSNQIGKHYKKVMYTQYEDESFTKHTVNPNMKEDGILGPIIRAQVRDTLKIVFKNMASRPYSIYPHGVTFSPYEDEVNSSFTSGRNNTMIRAVQPGETYTYKWNILEFDEPTENDAQCLTRPYYSDVDIMRDIASGLIGLLLICKSRSLDRRGIQRAADIEQQAVFAVFDENKSWYLEDNINKFCENPDEVKRDDPKFYESNIMSTINGYVPESITTLGFCFDDTVQWHFCSVGTQNEILTIHFTGHSFIYGKRHEDTLTLFPMRGESVTVTMDNVGTWMLTSMNSSPRSKKLRLKFRDVKCIPDDDEDSYEIFEPPESTVMATRKMHDRLEPEDEESDADYDYQNRLAAALGIRSFRNSSLNQEEEEFNLTALALENGTEFVSSNTDIIVGSNYSSPSNISKFTVNNLAEPQKAPSHQQATTAGSPLRHLIGKNSVLNSSTAEHSSPYSEDPIEDTDYIEIIPKEEVQSSEDDYAEIDYVPYDDPYKTDVRTNINSSRDPDNIAAWYLRSNNGNRRNYYIAAEEISWDYSEFVQRETDIEDSDDIPEDTTYKKVVFRKYLDSTFTKRDPRGEYEEHLGILGPIIRAEVDDVIQVRFKNLASRPYSLHAHGLSYEKSSEGKTYEDDSPEWFKEDNAVQPNSSYTYVWHATERSGPESPGSACRAWAYYSAVNPEKDIHSGLIGPLLICQKGILHKDSNMPMDMREFVLLFMTFDEKKSWYYEKKSRSSWRLTSSEMKKSHEFHAINGMIYSLPGLKMYEQEWVRLHLLNIGGSQDIHVVHFHGQTLLENGNKQHQLGVWPLLPGSFKTLEMKASKPGWWLLNTEVGENQRAGMQTPFLIMDRDCRMPMGLSTGIISDSQIKASEFLGYWEPRLARLNNGGSYNAWSVEKLAAEFASKPWIQVDMQKEVIITGIQTQGAKHYLKSCYTTEFYVAYSSNQINWQIFKGNSTRNVMYFNGNSDASTIKENQFDPPIVARYIRISPTRAYNRPTLRLELQGCEVNGCSTPLGMENGKIENKQITASSFKKSWWGDYWEPFRARLNAQGRVNAWQAKANNNKQWLEIDLLKIKKITAIITQGCKSLSSEMYVKSYTIHYSEQGVEWKPYRLKSSMVDKIFEGNTNTKGHVKNFFNPPIISRFIRVIPKTWNQSIALRLELFGCDIY
notes: range 1-810;range 1492-2196; Single-chain cofactor-like variant; All residue numbers count on mature Factor V (add 28 for the precursor)
B3: FV-810^QQ (other, human, UniProt P12259 29-838, looked up)
chain: B2 chain with R709Q, R864Q
notes: range 1-810;range 1492-2196; Both thrombin sites (Arg709 and Arg1545) changed to Gln; The same molecule is used for the thrombin-pretreated sample, since both cleavage sites are removed; the assay field says where thrombin pretreatment was used
B4: FV-810^R709Q (other, human, UniProt P12259 29-838, looked up)
chain: B2 chain with R709Q
notes: range 1-810;range 1492-2196; mature numbering
B5: FV-810^R1545Q (other, human, UniProt P12259 29-838, looked up)
chain: B2 chain with R864Q
notes: as for B4
B6: Factor V basic region peptide (FVBR), amino acids 951-1008 of Factor V (peptide)
peptide: SRAWGESTPLANKPGKQSGHPKFPRVRHKSLQVRQDGGKSRLKKSQFLIKTRKKKKEK
notes: Expressed in E. coli as a SUMO fusion; also called FV basic peptide; BR peptide

Experiments:
[1] = biological target: FV-810 (FV-DT), Factor V with amino acids 811-1491 deleted from the B-domain (human) (UniProt P12259); assay: fluorescence anisotropy, displacement; FXa S195A titrated into 30 nM OG488-BR, 20 nM FV-810, 50 uM PCPS, 25 C; displaced ligand: OG488-BR
[2] = biological target: FV-810 (FV-DT), Factor V with amino acids 811-1491 deleted from the B-domain (human) (UniProt P12259); assay: fluorescence anisotropy displacement of OG488-BR; FXaS195A titrated into 30 nM OG488-BR, 20 nM FV-810, 50 uM PCPS
[3] = biological target: FV-810 (FV-DT), Factor V with amino acids 811-1491 deleted from the B-domain (human) (UniProt P12259); assay: global fit of prethrombin-2 activation rates (1-50 nM FXa, 0-1000 nM BR, 5 nM FV-810, 50 uM PCPS) to a tight, competitive binding model
[4] = biological target: FV-810 (FV-DT), Factor V with amino acids 811-1491 deleted from the B-domain (human) (UniProt P12259); assay: fluorescence anisotropy displacement of OG488-BR
[5] = biological target: FV-810 (FV-DT), Factor V with amino acids 811-1491 deleted from the B-domain (human) (UniProt P12259); assay: fluorescence anisotropy, displacement; bovine BR titrated into 30 nM OG488-BR, 20 nM FV-810, 50 uM PCPS, 25 C; competitor: OG488-BR
[6] = biological target: FV-810 (FV-DT), Factor V with amino acids 811-1491 deleted from the B-domain (human) (UniProt P12259); assay: fluorescence anisotropy displacement of OG488-BR; 30 nM OG488-BR, 20 nM FV-810, 50 uM PCPS; stoichiometry of 1 assumed
[7] = biological target: T1, Oregon Green 488 maleimide-modified BR …; assay: fluorescence anisotropy; FV-810 titrated into 20 nM OG488-BR with 50 uM PCPS, 25 C
Procedure: (§1) Control experiments were performed by titrating FV-810 into buffer containing 10 mM EDTA (X) or by titrating rFVa (▴).
(§2) Steady-state fluorescence anisotropy was measured at 25° C. in a PTI Quanta-Master™ fluorescence spectrophotometer (Photon Technology International, Birmingham, N.J.) using excitation and emission wavelengths of 480 and 520 nm, respectively, with long-pass filters (KV500, CVI Melles Griot) in the emission beam.

[8] = biological target: T1, Oregon Green 488 maleimide-modified BR …; assay: fluorescence anisotropy; FVDT titrated into fluorescently labeled FVBR (probe concentration not given)
[9] = biological target: T1, Oregon Green 488 maleimide-modified BR …; assay: fluorescence anisotropy; FV-810 titrated into 40 nM OG488-BR with 50 uM PCPS, 25 C
Procedure: as §1, §2

[10] = biological target: T2, TFPI C-terminal tail peptide; assay: fluorescence anisotropy; FVDT titrated into the TFPI peptide (label and probe concentration not stated)
[11] = biological target: T1, Oregon Green 488 maleimide-modified BR …; assay: fluorescence anisotropy; buffer-pretreated FV-810 titrated into 30 nM OG488-BR with 50 uM PCPS
Procedure: (§3) FV-810, FV-810^R709Q (▴), FV-810^R1545Q (♦), and FV-810^QQ (▪) were pretreated with buffer (FIG. 14A) or thrombin (FIG. 14B).
as §2

[12] = biological target: T3, Fluorescently-labeled, active site-blocked FXa (UniProt P00742 41-179; P00742 235-488, fluorescently-labeled, active site-blocked (label and blocker not named)); assay: fluorescence anisotropy; FVDT titrated into fluorescently labeled, active site-blocked FXa on PCPS liposomes, buffer only (no FVBR); concentration of labeled FXa not given
T3 construct: also called fluorescently labeled FXa

[13] = biological target: T1, Oregon Green 488 maleimide-modified BR …; assay: fluorescence anisotropy; thrombin-pretreated, hirudin-quenched FV-810 QQ titrated into 30 nM OG488-BR with 50 uM PCPS
Procedure: as §3, §2

[14] = biological target: T1, Oregon Green 488 maleimide-modified BR …; assay: fluorescence anisotropy; buffer-pretreated FV-810 QQ titrated into 30 nM OG488-BR with 50 uM PCPS
Procedure: as §3, §2

[15] = biological target: T1, Oregon Green 488 maleimide-modified BR …; assay: fluorescence anisotropy; buffer-pretreated FV-810 R709Q titrated into 30 nM OG488-BR with 50 uM PCPS
Procedure: as §3, §2

[16] = biological target: T1, Oregon Green 488 maleimide-modified BR …; assay: fluorescence anisotropy; buffer-pretreated FV-810 R1545Q titrated into 30 nM OG488-BR with 50 uM PCPS
Procedure: as §3, §2

[17] = biological target: B2; assay: fluorescence anisotropy displacement of OG488-BR; 30 nM OG488-BR, 20 nM FV-810, 50 uM PCPS; stoichiometry of 1 assumed
[18] = biological target: B2; assay: fluorescence anisotropy, displacement; unlabeled BR titrated into 30 nM OG488-BR, 20 nM FV-810, 50 uM PCPS; competitor: OG488-BR [inset]
Procedure: as §1

[19] = biological target: B2; assay: global fit of prethrombin-2 activation rates (1-50 nM FXa, 0-1000 nM BR, 5 nM FV-810, 50 uM PCPS) to a tight, competitive binding model
Procedure: (§4) Data were analyzed by nonlinear least squares regression analysis using the Marquardt algorithm (Bevington et al. (1992) Data Reduction and Error Analysis for the Physical Sciences, pp. 141-167, McGraw-Hill, New York), and the quality of each fit was assessed as described (Straume et al. (1992) Methods Enzymol., 210:87-105).

[20] = biological target: B2; assay: fluorescence anisotropy, displacement; FVBR titrated into labeled active site-blocked FXa plus FVDT on PCPS liposomes; displaced ligand: labeled FXa
[21] = biological target: B2; assay: fluorescence anisotropy displacement; unlabeled BR titrated into 30 nM OG488-BR, 20 nM FV-810, 50 uM PCPS
Procedure: as §1, §4

[22] = biological target: B2; assay: fluorescence anisotropy, displacement; human BR titrated into 30 nM OG488-BR, 20 nM FV-810, 50 uM PCPS, 25 C; competitor: OG488-BR

T3 sequence (P00742 41-179 limits assumed, chain 1 of 2): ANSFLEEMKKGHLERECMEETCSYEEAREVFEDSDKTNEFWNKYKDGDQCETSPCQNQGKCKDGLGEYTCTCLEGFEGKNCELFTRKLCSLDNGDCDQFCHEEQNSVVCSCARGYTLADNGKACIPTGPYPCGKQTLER
T3 sequence (P00742 235-488 limits assumed, chain 2 of 2): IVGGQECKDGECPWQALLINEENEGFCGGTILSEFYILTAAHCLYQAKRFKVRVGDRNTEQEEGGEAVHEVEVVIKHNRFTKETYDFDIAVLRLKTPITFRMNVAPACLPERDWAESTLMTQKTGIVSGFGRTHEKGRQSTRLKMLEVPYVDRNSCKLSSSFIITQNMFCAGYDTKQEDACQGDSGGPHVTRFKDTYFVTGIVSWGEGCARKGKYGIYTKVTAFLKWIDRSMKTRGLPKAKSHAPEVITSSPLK

catalytically inactive FXa^S195A (from UniProt P00742 41-179; P00742 235-488) (enzyme)
IC50 (read off the curve) [1]: 40 nM
n (stoichiometry) (mol of FXa/mol of FV-810) [2]: 1.1

Factor Xa (FXa) (from UniProt P00742 41-179; P00742 235-488) (enzyme)
Kd [3]: 2 nM

B1
fold weaker binding than the human BR [4]: 10 fold
IC50 (read off the curve) [5]: 300 to 400 nM
Kd [6]: 28.3 nM

B2
EC50 (read off the curve) [7]: ~8 nM
EC50 (read off the curve) [8]: 10 to 15 nM
EC50 (read off the curve) [9]: ~10 nM
EC50 (read off the curve) [10]: ~10 nM
EC50 (read off the curve) [11]: 10 to 15 nM
EC50 (read off the curve) [12]: 6 to 8 nM

B3
EC50 (read off the curve) [13]: 10 to 15 nM
EC50 (read off the curve) [14]: ~9 nM

B4
EC50 (read off the curve) [15]: 15 to 20 nM

B5
EC50 (read off the curve) [16]: 10 to 15 nM

B6
Kd [17]: 2.2 nM
IC50 (read off the curve) [18]: ~50 nM
Kd [19]: 34.2 nM
IC50 (read off the curve) [20]: ~90 nM
Kd [21]: 2.1 nM
IC50 (read off the curve) [22]: ~50 nM
